Results on 2 molecules are retold here after patent publication US20190359710A1.

Assay [1] addresses CD33 and CD123 together on double-positive human AML cells. In words: cell-based or functional assay.
The target is the same in assay [2]. In words: calibrated flow cytometry on MOLM13 cells (CD33/CD123 double-positive).

B1: single chain triplebody SPM-2, hu(33-ds16-ds123RK) (protein)
chain: EVQLVESGGGLIQPGGSLRLSCAASGFPLTSYGVSWVRQPPGKGLEWLGVIWGDGSTNYHSALISRFTISRDNSKNTLYLQMNSLRAEDTAVYYCARDTYYPYYAMDYWGQGTTVTVSSGGGGSGGGGSGGGGSDIQMTQSPSSLSASVGDRVTITCKASQDVSTAVAWYQQKPGKAPKLLIYSASYRYTGVPSRFSGSGSGTDFTLTISSLQPEDFATYYCQQHYSTPLTFGQGTKLEIKRGGGGSGGGGSGGGGSGGGGSDIVLTQSPSSLSASVGDRVTITCKASQSVDFDGDSFMNWYQQKPGKAPKLLIYTTSNLESGVPSRFSASGSGTDFTLTISSLQPEDFATYYCQQSNEDPYTFGCGTKVEIKRGGGGSGGGGSGGGGSGGGGSEVQLVESGGGDVQPGGSLRLSCAFSGFSLRTSGMGVGWIRQAPGKCLEWVAHIWWDDDKRYNPSVKGRFTISKDTSSNTVYLQMNSLRAEDTAVYYCAQINPAWFAYWGQGTLVTVSSGGGGSGGGGSGGGGSGGGGSEVQLVESGGGLVQPGGSLRLSCAASGFTFTDYYMSWVRQAPGKCLEWLALIRSKADGYTTEYSASVKGRFTISRDDSKNSLYLQMNSLKTEDTAVYYCARDAAYYSYYSPEGAMDYWGQGTSVTVSSGGGGSGGGGSGGGGSDIQMTQSPSSLSASVGDRVTITCKASQNVDSAVAWYQQKPGKAPKALIYSASYRYSGVPSRFSGSGSGTDFTLTISSLQPEDFATYYCQQYYSTPWTFGCGTKVEIKRGGGGSHHHHHH
In assay [1], B1 had a % specific lysis of MOLM-13 cells at 1 nM SPM-2, 4 hr time point of 30.7%; a Biol. Activity EC50 [pM], redirected lysis (RDL), 3 h, E:T=10:1 (MNC:MOLM-13) of 14 pM; an EC50 (pM), RDL cytolysis of primary MNCs of AML patient P1 with LAK cells of 131 pM; an EC50 (pM), RDL cytolysis of primary MNCs of AML patient P2 with LAK cells of 20 pM. For the same molecule, in assay [1], the EC50 (pM), RDL cytolysis of primary MNCs of AML patient P3 with LAK cells was 67 pM; the EC50 (pM), RDL cytolysis of primary MNCs of AML patient P4 with LAK cells was 32 pM; the EC50 (pM), RDL cytolysis of primary MNCs of AML patient P5 with LAK cells was determined as 242 pM; the EC50 (pM), RDL cytolysis of primary MNCs of AML patient P6 with LAK cells turned out to be 155 pM. In assay [1], the EC50 (pM), RDL cytolysis of primary MNCs of AML patient P7 with LAK cells is 79 pM; the EC50 (pM), RDL cytolysis of primary MNCs of AML patient P8 with LAK cells is 133 pM; the EC50 (pM), RDL cytolysis of primary MNCs of AML patient P9 with LAK cells is 166 pM; the EC50 (pM), RDL cytolysis of primary MNCs of AML patient P10 with LAK cells turned out to be 51 pM. In assay [1], this molecule gave an EC50 (pM), RDL cytolysis of primary MNCs of AML patient P11 with LAK cells of 1080 pM; an EC50 (pM), RDL cytolysis of primary MNCs of AML patient P12 with LAK cells of 38 pM; an EC50 (pM), RDL cytolysis of primary MNCs of AML patient P13 with LAK cells of 245 pM; an EC50 (pM), RDL cytolysis of primary MNCs of AML patient P14 with LAK cells of 229 pM. In assay [1], this molecule returned an EC50 (pM), RDL cytolysis of primary MNCs of AML patient P15 with LAK cells of 177 pM; an EC50 (pM), RDL cytolysis of primary MNCs of AML patient P16 with LAK cells of 758 pM; an EC50 (pM), RDL cytolysis of primary MNCs of AML patient P17 with LAK cells of 125 pM; an EC50 (pM), RDL cytolysis of primary MNCs of AML patient P18 with LAK cells of 221 pM. Besides, in assay [1], the EC50 (pM), RDL cytolysis of primary MNCs of AML patient P19 with LAK cells worked out at 406 pM; the EC50 (pM), RDL cytolysis of primary MNCs of AML patient P20 with LAK cells was 251 pM; the EC50 (pM), RDL cytolysis of primary MNCs of AML patient P21 with LAK cells came to 22 pM; the EC50 (pM), RDL cytolysis of primary MNCs of AML patient P22 with LAK cells was 225 pM. In assay [1], this molecule registered an EC50 (pM), RDL cytolysis of primary MNCs of AML patient P23 with LAK cells of 476 pM; an EC50 (pM), RDL cytolysis of primary MNCs of AML patient P24 with LAK cells of 127 pM; an EC50 (pM), RDL cytolysis of primary MNCs of AML patient P25 with LAK cells of 541 pM; an EC50 (pM), RDL cytolysis of primary MNCs of AML patient P26 with LAK cells of 58 pM. In assay [1], this molecule came in with an EC50 (pM), RDL cytolysis of primary MNCs of AML patient P27 with LAK cells of 10 pM; an EC50 (pM), RDL cytolysis of primary MNCs of AML patient P28 with LAK cells of 560 pM; an EC50 (pM), RDL cytolysis of primary MNCs of AML patient P29 with LAK cells of 70 pM; an EC50 (pM), RDL lysis of CD34-enriched MNCs of AML patient P9 of 43 pM. In assay [1], the EC50 (pM), RDL lysis of CD34-enriched MNCs of AML patient P11 stood at 681 pM and the EC50, standard RDL assay, MOLM-13 targets, thawed LAK cells, 4 hr, MNC:Target 10:1 worked out at 0.024 nM.

B2: candidate triplebody hu[33-ds16-ds123RK] before polishing of the sequence (protein, not shown: small tags and cut ends)
chain: EVQLVESGGGLIQPGGSLRLSCAASGFPLTSYGVSWVRQPPGKGLEWLGVIWGDGSTNYHSALISRFTISRDNSKNTLYLQMNSLRAEDTAVYYCARDTYYPYYAMDYWGQGTTVTVSSGGGGSGGGGSGGGGSDIQMTQSPSSLSASVGDRVTITCKASQDVSTAVAWYQQKPGKAPKLLIYSASYRYTGVPSRFSGSGSGTDFTLTISSLQPEDFATYYCQQHYSTPLTFGQGTKLEIKRGGGGSGGGGSGGGGSGGGGSDIVLTQSPSSLSASVGDRVTITCKASQSVDFDGDSFMNWYQQKPGKAPKLLIYTTSNLESGVPSRFSASGSGTDFTLTISSLQPEDFATYYCQQSNEDPYTFGCGTKVEIKRGGGGSGGGGSGGGGSGGGGSEVQLVESGGGDVQPGGSLRLSCAFSGFSLRTSGMGVGWIRQAPGKCLEWVAHIWWDDDKRYNPSVKGRFTISKDTSSNTVYLQMNSLRAEDTAVYYCAQINPAWFAYWGQGTLVTVSSGGGGSGGGGSGGGGSGGGGSEVQLVESGGGLVQPGGSLRLSCAASGFTFTDYYMSWVRQAPGKCLEWLALIRSKADGYTTEYSASVKGRFTISRDDSKNSLYLQMNSLKTEDTAVYYCARDAAYYSYYSPEGAMDYWGQGTSVTVSSGGGGSGGGGSGGGGSDIQMTQSPSSLSASVGDRVTITCKASQNVDSAVAWYQQKPGKAPKALIYSASYRYSGVPSRFSGSGSGTDFTLTISSLQPEDFATYYCQQYYSTPWTFGCGTKVEIKR
Turning to B2, the Kd in assay [2] came out at 11 nM.
